What was measured:
[1] = molecular target: fusion glycoprotein (F) of the MPV used in the neutralization of Table 34 (metapneumovirus); test: cell-based or functional assay
[2] = molecular target: RSV fusion glycoprotein (RSV-F) of the RSV used in the neutralization of Table 33 (respiratory syncytial virus, strain not stated); test: cell-based or functional assay
[3] = molecular target: RSV fusion glycoprotein (RSV-F) (respiratory syncytial virus (strain not stated)); test: SPR; sensors loaded with RSV-F, mAb in solution (Experiment 2)
[4] = molecular target: fusion glycoprotein of the RSV used in the neutralization assay of Example 1 (respiratory syncytial virus (strain not stated)); test: cell-based or functional assay
[5] = molecular target: RSV fusion glycoprotein (RSV-F) (respiratory syncytial virus); test: SPR; F protein loaded on streptavidin sensors, mAb in solution
[6] = molecular target: fusion glycoprotein of RSV B1 BPR-348-00 (BEI NR-4052) (respiratory syncytial virus B1) (UniProt O36634); test: cell-based or functional assay
[7] = molecular target: fusion glycoprotein of RSV A2 BPR-344-00 (BEI NR-12149) (respiratory syncytial virus A2) (UniProt P03420); test: cell-based or functional assay
[8] = molecular target: MPV fusion glycoprotein with the D280N mutation (MPV-F N280) (metapneumovirus); test: SPR; F protein loaded on streptavidin sensors, mAb in solution
[9] = molecular target: MPV fusion glycoprotein without the D280N mutation (MPV-F D280) (metapneumovirus); test: as above
[10] = molecular target: RSV F B N201S (RSV B); test: FACS, % binding to RSV F B variants
[11] = molecular target: RSV F B, B Ref (RSV B); test: FACS, % binding to RSV F B variants
[12] = molecular target: RSV F B N208S (RSV B); test: FACS, % binding to RSV F B variants
[13] = molecular target: RSV F B N208D (RSV B); test: FACS, % binding to RSV F B variants
[14] = molecular target: RSV F B K68N-N201S (RSV B); test: FACS, % binding to RSV F B variants
[15] = molecular target: RSV F B S443P (RSV B); test: FACS, % binding to RSV F B variants
[16] = molecular target: RSV F B K68N-N208S (RSV B); test: FACS, % binding to RSV F B variants
[17] = molecular target: RSV A fusion glycoprotein (F), virus of the neutralisation assays of Tables 54 and 57 (RSV A); test: cell-based or functional assay
[18] = molecular target: RSV F A N208Y-N671I (RSV A, strain A2) (UniProt P03420); test: FACS, % binding to RSV F A variants
[19] = molecular target: RSV F A, A2 Ref (RSV A, strain A2) (UniProt P03420); test: FACS, % binding to RSV F A variants
[20] = molecular target: RSV F A G446E (RSV A, strain A2) (UniProt P03420); test: FACS, % binding to RSV F A variants
[21] = molecular target: RSV F A S433P (RSV A, strain A2) (UniProt P03420); test: FACS, % binding to RSV F A variants
[22] = molecular target: RSV F A S443P-K445N (RSV A, strain A2) (UniProt P03420); test: FACS, % binding to RSV F A variants
[23] = molecular target: RSV F A S433P-G446E (RSV A, strain A2) (UniProt P03420); test: FACS, % binding to RSV F A variants
[24] = molecular target: RSV F A L203I (RSV A, strain A2) (UniProt P03420); test: FACS, % binding to RSV F A variants
[25] = molecular target: RSV fusion glycoprotein (RSV-F) of RSV-A (A2) (respiratory syncytial virus A, strain A2) (UniProt P03420); test: cell-based or functional assay
[26] = molecular target: RSV fusion glycoprotein (RSV-F) of RSV-B (B1) (respiratory syncytial virus B, strain B1) (UniProt O36634); test: cell-based or functional assay

palivizumab (antibody), sequence (VH): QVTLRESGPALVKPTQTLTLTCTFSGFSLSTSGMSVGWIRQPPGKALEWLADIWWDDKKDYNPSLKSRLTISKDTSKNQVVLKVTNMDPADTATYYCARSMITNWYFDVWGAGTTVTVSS
palivizumab (antibody), sequence (VL): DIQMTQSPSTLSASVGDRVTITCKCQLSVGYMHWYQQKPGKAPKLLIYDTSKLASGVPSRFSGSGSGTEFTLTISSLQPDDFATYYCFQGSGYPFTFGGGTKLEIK

Substance: D25-rIgG1 (antibody)
- IC50 (ng/mL) in neutralization against MPV [1]: > 2000 ng/mL
- IC50 (ng/mL) in neutralization against RSV [2]: 0.929 ng/mL

Substance: palivizumab (antibody)
- Kd [3]: 2.6 nM
- RSV Neutralization - IC50 [4]: 156 ng/mL
- Kd [5]: 2.6 nM

Substance: MEDI8897 (antibody)
- Kd [3]: 0.001 nM
- RSV Neutralization by MPK44 and MPK65-v2 - IC50 [6]: 0.4 ng/mL
- RSV and MPV Neutralization (IC50 ng/ml) [6]: 0.447 ng/mL
- RSV Neutralization by MPK44 and MPK65-v2 - IC50 [7]: 0.2 ng/mL
- RSV and MPV Neutralization (IC50 ng/ml) [7]: 0.208 ng/mL
- RSV Neutralization - IC50 [4]: 0.8 ng/mL
- Kd [5]: 0.001 nM
- Kd [8]: 100 nM
- Kd [9]: 100 nM

Substance: MK-1654-rIgG1m17,1-YTE (antibody)
- % binding [10]: 64.7%
- % binding [11]: 63.4%
- % binding [12]: 64.3%
- % binding [13]: 63.1%
- % binding [14]: 66.7%
- % binding [15]: 22.6%
- % binding [16]: 65.7%
- IC50, neutralization of RSVA [17]: 4.61 ng/mL
- % binding [18]: 43.1%
- % binding [19]: 83.7%
- % binding [20]: 0.049%
- % binding [21]: 7.14%
- % binding [22]: 0.11%
- % binding [23]: 1.04%
- % binding [24]: 62.6%

Substance: MEDI8897-rIgG1-YTE (nirsevimab) (antibody)
- IC50 (ng/mL) in neutralization against MPV [1]: > 2000 ng/mL
- IC50 (ng/mL) in neutralization against RSV [2]: 0.549 ng/mL
- Neutralization (IC50, ng/ml) [25]: 0.2 ng/mL
- Neutralization (IC50, ng/ml) [26]: 0.4 ng/mL
